We go through one molecule from patent US20230265215A1 (OMEROS, published 2023).

Bounds are passed on as bounds.

A word on the Kd: it is the free concentration of one partner at which half of the binding sites on the other are occupied at equilibrium, for simple one-to-one binding. As usually defined, the koff is the first-order rate constant of dissociation. Usually kon stands for the second-order rate constant of association.

The target of assay [1] is T1, Zymogen MASP-2 (human) (human, UniProt O00187 16-686, limits assumed).
T1 construct: also called zymogen form of human MASP-2
T1 sequence (O00187 16-686 limits assumed): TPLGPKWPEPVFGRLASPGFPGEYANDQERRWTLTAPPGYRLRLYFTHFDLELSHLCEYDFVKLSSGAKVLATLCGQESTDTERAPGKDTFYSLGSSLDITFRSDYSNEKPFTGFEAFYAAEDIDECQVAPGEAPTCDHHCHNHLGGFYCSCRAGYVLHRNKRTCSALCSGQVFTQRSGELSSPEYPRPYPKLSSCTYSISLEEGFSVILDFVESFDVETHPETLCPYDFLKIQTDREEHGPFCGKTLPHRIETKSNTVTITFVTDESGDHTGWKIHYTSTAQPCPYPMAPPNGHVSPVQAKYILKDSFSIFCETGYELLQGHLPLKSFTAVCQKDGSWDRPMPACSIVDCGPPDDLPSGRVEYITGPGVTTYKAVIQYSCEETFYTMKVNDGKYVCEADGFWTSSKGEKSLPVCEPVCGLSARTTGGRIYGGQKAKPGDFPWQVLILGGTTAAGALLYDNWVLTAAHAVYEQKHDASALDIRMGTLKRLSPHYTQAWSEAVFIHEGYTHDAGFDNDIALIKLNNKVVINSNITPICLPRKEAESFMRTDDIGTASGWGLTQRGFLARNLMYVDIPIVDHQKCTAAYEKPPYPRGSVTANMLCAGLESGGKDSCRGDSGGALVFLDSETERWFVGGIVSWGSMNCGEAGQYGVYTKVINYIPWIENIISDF
The experiment in a line: SPR, immobilized OMS858, fluid phase MASP-2. (In general: In SPR one partner is held on a chip, and binding of the other changes the refractive index at the surface.)

Assay [2] addresses T2, Catalytically active MASP-2 (human) (human, UniProt O00187 16-686, limits assumed).
T2 construct: also called catalytically active form of human MASP-2
The experiment in a line: SPR, immobilized OMS858, fluid phase MASP-2.

Assay [3] has as its target T3, MASP-3 (human, UniProt P48740-2 20-728, limits assumed).
T3 construct: Species read from 'Recombinant human MASP-2 or C1r, C1s, CFD, MASP-1 and MASP-3'
T3 sequence (looked up): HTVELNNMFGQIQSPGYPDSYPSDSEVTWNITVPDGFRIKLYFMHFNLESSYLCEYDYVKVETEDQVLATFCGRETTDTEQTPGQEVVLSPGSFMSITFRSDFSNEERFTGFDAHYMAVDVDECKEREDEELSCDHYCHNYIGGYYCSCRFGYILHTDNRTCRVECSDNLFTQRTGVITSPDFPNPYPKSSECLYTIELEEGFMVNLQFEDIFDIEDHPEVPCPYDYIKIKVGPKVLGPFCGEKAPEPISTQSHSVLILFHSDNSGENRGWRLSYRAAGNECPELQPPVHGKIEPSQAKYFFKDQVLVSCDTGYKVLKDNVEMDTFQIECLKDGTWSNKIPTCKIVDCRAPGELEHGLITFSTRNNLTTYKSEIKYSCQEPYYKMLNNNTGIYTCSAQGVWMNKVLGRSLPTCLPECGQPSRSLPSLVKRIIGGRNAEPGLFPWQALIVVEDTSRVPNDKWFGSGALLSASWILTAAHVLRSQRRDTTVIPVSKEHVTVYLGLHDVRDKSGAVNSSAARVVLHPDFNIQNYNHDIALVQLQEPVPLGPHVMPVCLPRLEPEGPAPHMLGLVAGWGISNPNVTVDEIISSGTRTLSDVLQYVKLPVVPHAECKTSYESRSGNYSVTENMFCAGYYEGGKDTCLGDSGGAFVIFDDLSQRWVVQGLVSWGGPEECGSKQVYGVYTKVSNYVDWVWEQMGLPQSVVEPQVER
The experiment in a line: solid phase ELISA, against human MASP-2 as reference. From the text:
(§1) The apparent dissociation constant (KD) was estimated by nonlinear regression using a 4-parameter logistic model.
(§2) Fold selectivity calculated as KD(related serine protease)/mean KD(MASP-2).
A general note: ELISA stands for enzyme-linked immunosorbent assay.

The target of assay [4] is T4, CFD (human, UniProt P00746 26-253, limits assumed).
T4 construct: Species read from 'Recombinant human MASP-2 or C1r, C1s, CFD, MASP-1 and MASP-3'; also called factor D; complement factor D
T4 sequence (P00746 26-253 limits assumed): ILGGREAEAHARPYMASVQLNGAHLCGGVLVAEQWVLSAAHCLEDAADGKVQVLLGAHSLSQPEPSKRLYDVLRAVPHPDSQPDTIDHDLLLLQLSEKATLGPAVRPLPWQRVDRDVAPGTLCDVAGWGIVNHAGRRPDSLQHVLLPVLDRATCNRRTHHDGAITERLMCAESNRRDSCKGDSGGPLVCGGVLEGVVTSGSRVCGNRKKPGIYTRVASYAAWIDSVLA
The description is as above.
Excerpt: as §1, §2

Assay [5] deals with T5, C1s (human, UniProt P09871 16-688, limits assumed).
T5 construct: Species read from 'Recombinant human MASP-2 or C1r, C1s, CFD, MASP-1 and MASP-3'
T5 sequence (looked up): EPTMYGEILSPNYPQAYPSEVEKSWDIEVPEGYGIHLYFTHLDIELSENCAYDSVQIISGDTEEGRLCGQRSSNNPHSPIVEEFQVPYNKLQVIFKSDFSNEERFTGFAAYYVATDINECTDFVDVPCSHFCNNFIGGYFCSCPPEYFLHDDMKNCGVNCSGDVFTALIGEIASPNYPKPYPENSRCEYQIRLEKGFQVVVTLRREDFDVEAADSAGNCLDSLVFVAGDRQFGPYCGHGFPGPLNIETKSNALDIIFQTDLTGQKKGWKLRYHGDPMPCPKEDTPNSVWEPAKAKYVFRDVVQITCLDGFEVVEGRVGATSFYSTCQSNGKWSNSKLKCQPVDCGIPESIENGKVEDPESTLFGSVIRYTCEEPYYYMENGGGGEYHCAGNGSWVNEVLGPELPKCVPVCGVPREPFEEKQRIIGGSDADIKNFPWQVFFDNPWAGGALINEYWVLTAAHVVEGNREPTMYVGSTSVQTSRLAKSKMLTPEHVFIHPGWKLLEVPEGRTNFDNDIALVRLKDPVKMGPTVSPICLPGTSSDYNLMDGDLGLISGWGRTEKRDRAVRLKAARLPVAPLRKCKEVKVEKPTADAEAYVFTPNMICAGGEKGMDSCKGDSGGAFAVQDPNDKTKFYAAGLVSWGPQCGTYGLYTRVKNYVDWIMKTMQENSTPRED
The assay is described as above.
Excerpt: as §1, §2

The target of assay [6] is T6, MASP-1 (human, UniProt P48740 20-699, limits assumed).
T6 construct: Species read from 'Recombinant human MASP-2 or C1r, C1s, CFD, MASP-1 and MASP-3'
T6 sequence (looked up): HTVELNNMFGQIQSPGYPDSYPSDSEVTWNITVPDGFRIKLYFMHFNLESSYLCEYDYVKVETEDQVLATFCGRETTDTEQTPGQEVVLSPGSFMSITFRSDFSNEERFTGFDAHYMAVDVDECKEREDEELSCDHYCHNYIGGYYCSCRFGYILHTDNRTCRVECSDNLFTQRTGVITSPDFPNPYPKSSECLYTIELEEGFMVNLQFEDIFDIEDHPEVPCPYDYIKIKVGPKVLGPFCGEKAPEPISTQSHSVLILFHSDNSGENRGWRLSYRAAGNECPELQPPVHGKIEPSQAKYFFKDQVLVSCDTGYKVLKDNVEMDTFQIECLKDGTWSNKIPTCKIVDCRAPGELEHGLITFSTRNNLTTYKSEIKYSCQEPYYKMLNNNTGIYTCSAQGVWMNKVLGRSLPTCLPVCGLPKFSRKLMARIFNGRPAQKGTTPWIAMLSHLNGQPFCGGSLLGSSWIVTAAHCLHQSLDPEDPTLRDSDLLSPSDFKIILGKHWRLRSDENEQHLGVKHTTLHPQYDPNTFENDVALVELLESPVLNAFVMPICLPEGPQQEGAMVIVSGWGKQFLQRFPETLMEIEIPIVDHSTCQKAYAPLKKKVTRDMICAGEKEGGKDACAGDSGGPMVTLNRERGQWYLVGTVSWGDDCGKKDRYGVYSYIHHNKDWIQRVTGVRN
Described as above.
Excerpt: as §1, §2

The target of assay [7] is mouse MASP-2 (endogenous, in mouse serum or hirudin plasma) (mouse, UniProt Q91WP0 20-685). The experiment in a line: cell-based or functional assay.
mouse MASP-2 (endogenous, in mouse serum or hirudin plasma), sequence (Q91WP0 20-685 limits assumed): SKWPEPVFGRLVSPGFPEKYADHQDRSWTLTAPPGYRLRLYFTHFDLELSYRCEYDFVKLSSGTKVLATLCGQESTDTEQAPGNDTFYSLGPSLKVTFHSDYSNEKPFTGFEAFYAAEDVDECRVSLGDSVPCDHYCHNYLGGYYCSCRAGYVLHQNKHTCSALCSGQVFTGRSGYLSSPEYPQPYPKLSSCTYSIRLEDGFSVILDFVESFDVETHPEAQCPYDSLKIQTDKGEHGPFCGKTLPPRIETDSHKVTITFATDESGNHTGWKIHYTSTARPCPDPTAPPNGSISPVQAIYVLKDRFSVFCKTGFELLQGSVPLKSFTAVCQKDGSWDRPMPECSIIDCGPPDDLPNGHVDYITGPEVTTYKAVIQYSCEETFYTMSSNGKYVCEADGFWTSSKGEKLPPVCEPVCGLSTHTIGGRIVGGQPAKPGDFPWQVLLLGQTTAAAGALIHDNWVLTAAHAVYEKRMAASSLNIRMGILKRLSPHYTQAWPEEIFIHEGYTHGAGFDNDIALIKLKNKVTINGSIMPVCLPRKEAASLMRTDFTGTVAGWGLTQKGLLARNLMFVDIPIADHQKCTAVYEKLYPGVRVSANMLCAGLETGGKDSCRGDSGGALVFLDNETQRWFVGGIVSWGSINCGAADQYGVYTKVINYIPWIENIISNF
In assay [8] the target is cynomolgus monkey MASP-2 (endogenous, in cynomolgus monkey serum) (cynomolgus monkey, UniProt O00187 16-686 (human entry), limits assumed). The experiment in a line: cell-based or functional assay.
cynomolgus monkey MASP-2 (endogenous, in cynomolgus monkey serum), sequence (O00187 other isoform, or with tags, fused parts or gaps limits assumed): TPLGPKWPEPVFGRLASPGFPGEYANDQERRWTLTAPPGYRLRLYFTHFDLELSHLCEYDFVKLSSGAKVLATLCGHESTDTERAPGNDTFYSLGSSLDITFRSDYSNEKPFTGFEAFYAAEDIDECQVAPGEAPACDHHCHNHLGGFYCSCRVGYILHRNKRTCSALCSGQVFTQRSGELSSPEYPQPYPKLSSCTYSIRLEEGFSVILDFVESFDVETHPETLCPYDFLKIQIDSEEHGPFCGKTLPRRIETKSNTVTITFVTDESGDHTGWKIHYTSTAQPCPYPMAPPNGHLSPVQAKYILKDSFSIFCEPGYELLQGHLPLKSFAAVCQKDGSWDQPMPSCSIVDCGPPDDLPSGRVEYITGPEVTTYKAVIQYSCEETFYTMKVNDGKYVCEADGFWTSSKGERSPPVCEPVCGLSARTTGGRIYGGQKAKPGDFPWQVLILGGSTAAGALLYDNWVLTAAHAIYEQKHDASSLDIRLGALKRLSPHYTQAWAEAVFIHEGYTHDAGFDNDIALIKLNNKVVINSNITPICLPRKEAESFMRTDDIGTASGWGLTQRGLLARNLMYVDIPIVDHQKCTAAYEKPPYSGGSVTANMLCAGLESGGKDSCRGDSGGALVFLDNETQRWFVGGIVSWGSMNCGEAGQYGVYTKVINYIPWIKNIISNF

T2 sequence (O00187 16-686 limits assumed): as the sequence (O00187 16-686 limits assumed) above

B1: mAb OMS858 (humanized anti-MASP-2 antibody) (antibody, V domains shown)
VH: QVQLVQSGAEVKKPGASVKVSCKASGYTFTNHHMHWLRQAPGQGLEWIGDIDASDSETHYIEKFKDRATLTIDKSSSTAYMELSSLRSEDTAVYYCARGDITTTLRYFDVWGQGTLVTVSS
VL: DIQLTQSPSSLSASVGDRVTITCSASSSVRYMYWYQQKPGKAPKLLIYDTSNLASGVPSRFSGSGSGTDNTLTISSLQPEDFATYYCQQWSSYPLTFGQGTKVEIKR
notes: also called antibody OMS858; biotinylated OMS858
Regarding B1, the values for the Kd in assay [1] and in assay [2] were 0.715 nM and 0.287 nM, respectively. For the same molecule, the koff is 0.000172 s⁻¹ in assay [1] and 0.00971 s⁻¹ in assay [2]. Moreover, the on-rate (kon) in assay [1] turned out to be 241000 M⁻¹ s⁻¹; in assay [2], 3.38e+07 M⁻¹ s⁻¹. The “Fold selectivity (KD related serine protease / mean KD MASP-2)” value in assay [3], in assay [4], in assay [5] and in assay [6] was over 2000 fold throughout. Further, the “Ratio (IC50-Query/IC50-Human), lectin-dependent C4 activation” value in assay [7] came out at 10.9 fold; in assay [8], 40.5 fold.
